The values below come from US20170166631A1 (NEURIMMUNE, published 2017).

The target in assay [1] is T1, GST-HttExon1Q21 (recombinant huntingtin exon 1 protein with 21 polyQ repeats fused to an N-terminal GST tag) (human, UniProt P08515 1-218 = GST; P42858 1-88).
T1 construct: Expressed in E. coli BL21; also called GST-HD21; soluble GST-HD21; not shown: PreScission cleavage site
Put plainly: direct ELISA. In general terms: ELISA stands for enzyme-linked immunosorbent assay.

The target of assay [2] is T2, HD21 (huntingtin exon 1 protein with 21 polyQ repeats after cleavage of the GST tag; aggregation reaction) (human, UniProt P42858 1-88).
T2 construct: domain: Exon1; Residues left by the protease site are not described; Aggregated preparation or time-resolved aggregation reaction; also called aggregated HD21; HttExon1Q21
Put plainly: direct ELISA, antigen coated at 5 ug/ml.

The target of assay [3] is T1, GST-HttExon1Q21 (recombinant huntingtin …). Nature of the assay: direct ELISA, antigen coated at 5 ug/ml.
The target in assay [4] is T3, HD49 (huntingtin exon 1 protein with 49 polyQ repeats after cleavage of the GST tag; aggregation reaction) (human, UniProt P42858 1-88).
T3 construct: domain: Exon1; Residues left by the protease site are not described; Aggregated preparation or time-resolved aggregation reaction; also called aggregated HD49; aggregated HTT Exon1 HD49
Nature of the assay: direct ELISA; reference HD21; aggregated or GST-fused form not said.

Assay [5] has as its target T2, HD21 (huntingtin exon 1 protein with 21 …). Nature of the assay: direct ELISA (Example 25, FIG. 20).
Assay [6] addresses T4, HD35 (huntingtin exon 1 protein with 35 polyQ repeats after cleavage of the GST tag; aggregation reaction) (human, UniProt P42858 1-88).
T4 construct: domain: Exon1; Residues left by the protease site are not described; Time-resolved aggregation reaction; also called HD35 aggregates; HttExon1Q35
Put plainly: filter retardation assay (SDS stable aggregates).

T2 sequence (P42858 1-88 limits assumed, change not shown): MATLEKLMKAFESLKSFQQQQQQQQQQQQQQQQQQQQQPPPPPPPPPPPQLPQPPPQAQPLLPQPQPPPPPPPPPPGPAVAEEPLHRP
T1 sequence (P08515 1-218, tags or fused parts left off): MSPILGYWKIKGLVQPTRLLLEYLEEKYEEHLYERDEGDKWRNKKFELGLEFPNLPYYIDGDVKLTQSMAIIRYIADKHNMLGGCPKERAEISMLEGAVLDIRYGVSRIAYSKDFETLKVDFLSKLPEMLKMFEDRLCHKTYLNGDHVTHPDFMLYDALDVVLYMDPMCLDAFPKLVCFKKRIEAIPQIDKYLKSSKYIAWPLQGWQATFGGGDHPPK
T4 sequence (P42858 other isoform, or with tags, fused parts or gaps limits assumed): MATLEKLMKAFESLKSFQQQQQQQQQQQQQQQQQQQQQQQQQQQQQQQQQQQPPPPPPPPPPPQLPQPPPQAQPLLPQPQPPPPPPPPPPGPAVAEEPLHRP
T3 sequence (P42858 other isoform, or with tags, fused parts or gaps limits assumed): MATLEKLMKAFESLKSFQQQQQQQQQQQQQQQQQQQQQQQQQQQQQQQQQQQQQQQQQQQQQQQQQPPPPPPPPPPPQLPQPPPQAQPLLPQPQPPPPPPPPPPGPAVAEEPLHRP

B1: NI-302.15E8 (antibody, V domains shown)
VH: EVQLVESGGGLIQPGGSLRLSCAVSGFTVSSYSMNWVRQAPGKGLEWVSYTSSSRSNTKKYADSVKGRFTISRDNARNSLYLQMNSLRDEDTAVYYCARAGDFGELLTGEGYYGMDVWGQGTTVTVSS
VL: SYELTQPPSVSVSPGQTATITCSGDELGDKYVGWYQQKPGQSPLLVIYQDAKRPSGIPERFSGSNSGNTATLTISGTQAMDEADYYCQAWDSGTMVFGGGTRLTVL
notes: also called anti-N-terminal domain antibody
As to B1, the binding result in assay [1] and in assay [2] was “binds” throughout.

B2: NI-302.4A6 (antibody, V domains shown)
VH: EVQLVESGGGLVQPGGSLRLSCAASGFTFSAYAMSWVRQAPGKGLEWVSTISGSGGSTYYADSVKGRFSISRDNSKNTLYLQMNSLRAEDTAVYFCAKVTTELYGANSYYYYMDVWGKGTTVTVSS
VL: EIVLTQSPGTLSLSPGERATLSCRASQSVVSRYLAWYQQKPGQAPRLLIYGASSRATGIPDRFSGSGSGTDFTLTISRLEPEDFAMYYCQLYGNSQTFGQGTKVEIK
With B2, the binding result in assay [3] was “binds”.

B3: NI-302.64E5 (antibody, V domains shown)
VH: EVQLVETGGGLVKPGGSLRLSCAASGFTFDQAWMSWVRQVPGKGLEWVGRIKTKTEGEATDYAAPVRGRFTISRDDSEDTVFLQMNSLKTEDTALYYCTSTGVLAAAVDVYWGQGTLVTVSS
VL: DIQLTQSPDSLAVSLGERATMTCKSSQSLFYSYNNENYLAWYQQRPGQPPKLLIYWASTRESGVPDRFSGSGSGTDFTLTISSLQAEDVAVYYCQQYYSTPQTFGQGTKVDIK
For B3, the binding result in assay [3] is recorded as “binds”.

B4: NI-302.15F9 (antibody, human IgG1, V domains shown)
VH: EVQLVESGGGLVTPGGSLRLSCEASGFLFKNSSMNWVRQTPGKGLEWVSSIDTSATNYKYYADSVKGRFTISRDDATNSLYLQMNSLRADDTATYYCARGYYTPRDFDYWGQGTLVTVSS
VL: DVVMTQSPQTLSVSLGQAASISCRSSQSLLYRDNNTYLNWFHQRPGQSPRRLIYRASDRDSGVPDRFSGGGSGTDFTLKISGVEAEDVGTYYCMQGTHWPRTFGQGTKVEIK
notes: Expressed as complete human IgG1
On to B4, for which, in assay [4], the “fold preference of HD49 vs. HD21” value is approximately 5 fold.

B5: NI-302.8M1 (antibody, V domains shown)
VH: EVQLVQSGAEVKKPGASVKVSCKASGYTFTIYYMHWVRQAPGQGLEWMGGISPSGAHTMYAQNFQGRVTVTRDTSTSTVYMELSSLRSEDTAVYYCARGSTVTNYRPFDYWGQGTLVTVSS
VL: DIQMTQSPSSLSASVGDRVTITCRASQDISNYLAWYQQKPGKVPKLLIFAASTLQSGVPSRFGGSGSGTDFTLTISSLQPEDVATYYCQNYNSGPPPFGPGTKVDIK
For the molecule B5, the binding result in assay [3] is given as “binds”.

B6: NI-302.35C1 (antibody, V domains shown)
VH: EVQLVESGGNLVQPGGSLRLSCTASGFTFSITALSWVRQAPEKGPQWVSAITGNAYGTYYADSVKGRFTISRDNAKNTLYLQMNGLRAEDTAIYYCVKGIASDSSGYSAFWGPGTLVTVSS
VL: EIVLTQSPATLSLSPGERATLSCRASQSVDNQFAWYQQKPGQAPRLLIYDASRRAPGIPDRFSGSGSGTDFTLTISSLEPEDFAIYYCQHRYTWLYTFGQGTRLEIK
notes: also called anti-C-terminal domain antibody
For B6, the binding result in assay [3] is “binds”.

B7: NI-302.6N9 (antibody, human IgG1, V domains shown)
VH: EVQLVESGGDLVQPGGSLRLSCVVSGFTFSSYAMTWVRQAPGKGLAWVSTISATGGSTFYTDSVRGRFTISRDNSKNTLYLQMNSLRTDDTAIYYCVKDLFGVDTSYYGMDVWGQGTTVTVSS
VL: EIVLTQSPGTLSLSPGERATLSCRPSQSVSGRYVAWYQQKPGQAPRLLFYAASNRAIGIPDRFSGSGSGTDFTLTISRLEPEDFAVYYCQHYGASSYTFGPGTKVDIK
notes: as for B4
Consider B7, for which the binding result in assay [5] was “binds”.

B8: NI-302.74C11 (antibody, V domains shown)
VH: EVQLVQSGTEVQKPGASVKVSCKASGYSFTGYFLHWVRQAPGQGLEWMGWINPNSGDTNYAEKFRGRIIMTRDTSVSTAHMELSSLRFDDTALYYCTREAPDPGAETDVWGQGTTVTVSS
VL: QSVLTQPPSVSVSPGQTARITCSGDAVPKQYIYWYQQKPGQAPILVIYKDTQRPSGIPERFSGSNSGTTVTLTITGVQADDEGDYYCQSADSSATWVFGGGTKLTVL
Regarding B8, the binding result in assay [3] and in assay [2] was “binds” in each case.

B9: NI-302.7D8 (antibody, V domains shown)
VH: QVQLVQSGSELKKPGASVKVSCKASGYNFNNYAINWLRQAPGQGLEWMGWINTITGHPTYAQGFKGRFVFSLDTSVSTAYLQISSLKPEDTAVYYCARTYSNYGEFDYWGQGTLVTVSS
VL: QSALTQPASVSGSRGQSITISCTGTSSDVGSYNLVSWYQQYPGKAPKLIIHEGSERPSGVSNRFSGSKSGNTASLTISGLQAEDEADYYCCSYAGTTTFVLFGGGTKLTVL
notes: also called anti-poly Q/P domain antibody
Consider B9, for which, in assay [3], the binding result is “binds”.

B10: NI-302.11A4 (antibody, V domains shown)
VH: EVQLVESGGGLIQPGGSLRLSCAASGFPVSSSYMSWVRQAPGEGLEWVSVLYRDGDTYYADSVQGRFTISRDNSQNTFYLQMNSLKAEDTAVYYCAGDRRSSHYYYGMDVWGQGTTVTVSS
VL: EIVMTQSPGTLSLSPGERATLSCRASQSVSSSYFAWYQQKPGQAPRLLIYGTSRRATAIPDRFSGSGSGTDFTLTISRLEPEDFAVYYCQQYGSSWTFGPGTKVEIK
On to B10, for which, in assay [3], the binding result was “binds”.

B11: NI-302.44D7 (antibody, human IgG1, V domains shown)
VH: EVQLVQSGGGLVQPGGSLRLSCAASGFTFSSYAMSWVRQAPGKGLEWVSGIGYSDTSTYYADSVKGRFTVSRDISKNTLYLQMNSLRAEDTAVYYCAKGTRDYYGMDVWGQGTMVTVSS
VL: QTVVTQEPSFSVSPGGTVTLTCGLSSGSVSTSYYPSWYQQTPGRAPRTLIYSTNTRSSGVPDRFSGSILGNKAALTITGAQADDESDYYCVLFMGSGIGVFGGGTRLTVL
notes: as for B4
Turning to B11, in assay [6], the binding result is on record as “no binding (tested: 0.2 µg/ml primary antibody)”.

B12: NI-302.55D8 (antibody, V domains shown)
VH: QVQLVQSGSEVKKPGASVKVSCKASGYTFTDYYIHWVRQAPGQGLEWMGRINPNNGGTNYAQNFQGWVTMTRDTSISTAYMELSRLRSDDTAVYYCARVGGELLREGGYHYYMDVWGKGTTVTVSS
VL: QSVLTQPPSVSGAPGQRVTISCTGNSSNIGAGYDVHWYQQLPGTAPKLLIFDNTNRPSGVPDRFSGSKSGTSASLAITGLQAEDEANYHCQSYDNSLSGSWVFGGGTKLTVL
On to B12, for which the binding result in assay [3] was “binds”.

B13: NI-302.33C11 (antibody, V domains shown)
VH: EVQLVESGGGVVQPGNSLRLSCAASGFRFSDFGMHWVRQAPGKGLEWLALIWYDGGYKYYADSVKGRFTISRDNSKNTMFLQMNSLRAEDTAVYYCATHLEYCSRTTCYLGHWGQGTLVTVSS
VL: DIQLTQSPSFLSASVGDTVTFTCRASQGISDYLAWFQQKPGIAPKLLIYAASTLQTGVPSRFSGSGSGTEFTLTIRSLQSEDFGTYYCQQLKTYPYTFGQGTKVEIK
notes: also called anti-polyP domain antibody
A word on the EC50: it is the concentration that produces a half-maximal response. For the molecule B13, the EC50 in assay [3] is approximately 100 pM.

B14: NI-302.22H9 (antibody, V domains shown)
VH: EVQLVESGGGLVHPWGSLRVSCAASGFSVSNYAITWVRQAPGKGLEYISVIYRDGRTYYGDSVRGRFTISRDDSKNTIYLQMNSLRFEDTAVYYCARAHGQYYYGVDVWGQGTTVTVSS
VL: DVVMTQSPLSLSVSPGEPASISCRSSQSLLHSNGYNYLDWYRQKPGQSPQLLIYLNSNRASGVPDRFSGSGSGTEFTLTISRVEAEDVGVYYCMQSLQTFTFGGGTKVEIK
With B14, the binding result in assay [3] was “binds”.

B15: NI-302.63F3 (antibody, V domains shown)
VH: QVQLVQSGSAFKKPGTSVKVSCKASGYTFETRSMNWVRQAPGQGLEYMGWINTNTGNRTYVQAFRGRFVFSLDTSVSTAYLQISNLKTEDTAVYYCARGAGGGYWFDSWGQGTLVTVSS
VL: DIQMTQSPDSLAVSLGERATINCKSNQSLFYSSNNNNYLAWYQHKSGQPPKLLVYWGSTRESGVPDRFSGSGSGTDFTLTISSLQAEDVAIYYCHQYYHNPYTFGQGTKLEIK
notes: also called anti-P-rich domain antibody; anti-proline-rich domain antibody
In the case of B15, the binding result in assay [3] and in assay [2] was “binds” in each case.

B16: NI-302.37C12 (antibody, V domains shown)
VH: EVQLVESGGGLVQPGGSLRLSCVASALTVTNSQMTWVRRAPGRGLEWVSVIYTSGSAYYADSVKGRFTISRDNSKNTVFLQMNSLRVEDTAVYYCAKGPSAYYYGLDLWGQGTTVTVSS
VL: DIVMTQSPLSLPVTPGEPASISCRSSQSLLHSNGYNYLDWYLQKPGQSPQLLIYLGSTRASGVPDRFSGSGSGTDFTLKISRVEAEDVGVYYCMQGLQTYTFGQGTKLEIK
As for B16, the binding result in assay [3] is “binds”; in assay [6] it was “no binding (tested: 0.2 µg/ml primary antibody)”.

B17: NI-302.71F6 (antibody, V domains shown)
VH: QVQLQQWGAGLLKPSETLSLTCAVYGGSLSGYYWSWIRQPPGKGLEWIGEVNHSGGTNLNSSLKSRVIISVDKSKKQFSLKLSSVTAADTAMYFCARGYSYDPKYYFDSWSQGTLVTVSS
VL: QSALTQPASVSGSPGQAITISCTGTSSDIGSYDFVSWYQQDPGKAPKVIIYGVNKRPSGVSNRFSGSKSGNTASLTISGLQADDEADYYCCSYAGSTTWVFGGGTKLTVL
As to B17, the binding result in assay [3] and in assay [2] was “binds” in each case.
